# Source: patent US7166568B1, “Compositions and methods to inhibit formation of the C5b-9 complex of complement” (Oklahoma Medical Research Foundation, priority 1998, dated 2007)
# Non-standard residues stand in square brackets, D forms with d. No end group written: not given here. allyl‑C = allyl-modified terminal Cys; allyl‑K = allyl-modified terminal Lys
# Molecular target: T1, CD59 (Homo sapiens, UniProt P13987)
# T1 construct: human erythrocyte membrane glycoprotein CD59 were purified; from tissue; host or cells: human erythrocyte membranes (CD59); synthetic peptide custom ordered from Quality Controlled Biochemicals
# T1 sequence (P13987 26-102): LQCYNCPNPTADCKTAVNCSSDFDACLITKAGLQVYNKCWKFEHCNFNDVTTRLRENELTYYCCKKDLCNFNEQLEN
# Test: CD59 binding to hu C9 peptide 359–384, microtiter plate assay with biotin-CD59
# Details: microplate; corrected for nonspecific binding with 20-fold excess unlabeled CD59
# Experimental: Biotin-CD59—CD59 was biotinylated by incubation (1 h, room temperature) with a 20-fold molar excess of NHS-LC-biotin in 10 mM MOPS, 0.1% Nonidet P-40, pH 9.0 followed by exhaustive dialysis against charcoal, as described by Chang, et al. J. Biol. Chem. 269, 26424–26430 (1994).
# CD59 binding to hu C9 peptide 359–384—The specific binding of CD59 to hu C9-derived peptide 359–384 was measured by microtiter plate assay with biotin-CD59, according to modification of published methods of Chang, et al. (1994) and Husler, et al. (1995). Briefly, the BSA-peptide conjugate was adsorbed to 96 well polyvinyl microplates by overnight coating at 5 μg/ml in 0.1 M sodium bicarbonate, pH 8.5. After blocking with 1% (w/v) BSA, wells were washed and incubated (4 hrs., 37° C.) with between 0.5 and 1 μg/ml biotin-CD59. After washing, the bound biotin-CD59 was detected with Vectastain (Vector Labs, Burlingame, Calif.), developed by addition of p-nitrophenyl phosphate (2 mg/ml) and optical density recorded at 405 nm (VMaxMicroplate Reader, Molecular Devices, Inc.). In all experiments, correction was made for background adsorption of biotin-CD59 to BSA-coated wells (no peptide) and for nonspecific binding of biotin-CD59 to peptide, determined in the presence of a 20-fold excess of unlabeled CD59. […]
substance,measurement,value
[allyl-K]-CLGYHLDVSLAFSEISVGAEFNKDD-[allyl-C] ([allyl‑K]CLGYHLDVSLAFSEISVGAEFNKDD[allyl‑C]; not fully specified; printed as [allyl-K]-CLGYHLDVSLAFSEISVGAEFNKDD-[allyl-C]) [C9 peptide 359–384],specific binding of biotin-CD59 to the BSA-coupled peptide,specifically bound
